Values quoted from earlier work as cited in paper PMC4569521.

Columns and labels:
[1] = target: MuA recognition peptides (Escherichia phage Mu) (UniProt P07636)
[2] = target: MuA tetramer (Escherichia phage Mu) (UniProt P07636)
Sequence of MuA tetramer (Escherichia phage Mu) (P07636 whole entry): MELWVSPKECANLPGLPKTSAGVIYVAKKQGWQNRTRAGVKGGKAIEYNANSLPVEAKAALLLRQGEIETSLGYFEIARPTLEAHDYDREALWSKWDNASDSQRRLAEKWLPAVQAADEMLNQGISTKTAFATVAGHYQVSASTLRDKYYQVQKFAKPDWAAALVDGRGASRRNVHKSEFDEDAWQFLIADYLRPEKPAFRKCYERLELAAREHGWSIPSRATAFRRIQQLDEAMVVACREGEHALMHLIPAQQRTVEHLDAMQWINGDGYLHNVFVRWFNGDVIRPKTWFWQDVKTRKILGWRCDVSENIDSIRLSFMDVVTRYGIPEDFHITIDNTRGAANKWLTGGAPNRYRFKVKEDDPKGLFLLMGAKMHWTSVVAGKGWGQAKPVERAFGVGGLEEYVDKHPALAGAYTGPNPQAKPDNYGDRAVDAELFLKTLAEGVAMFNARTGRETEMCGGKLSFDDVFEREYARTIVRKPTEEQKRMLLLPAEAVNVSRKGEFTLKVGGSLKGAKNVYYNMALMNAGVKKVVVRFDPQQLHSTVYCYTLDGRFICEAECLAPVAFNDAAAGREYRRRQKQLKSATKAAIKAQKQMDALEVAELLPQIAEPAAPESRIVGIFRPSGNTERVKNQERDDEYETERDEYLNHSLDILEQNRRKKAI

Sequence of ClpX (P0A6H1 2-424): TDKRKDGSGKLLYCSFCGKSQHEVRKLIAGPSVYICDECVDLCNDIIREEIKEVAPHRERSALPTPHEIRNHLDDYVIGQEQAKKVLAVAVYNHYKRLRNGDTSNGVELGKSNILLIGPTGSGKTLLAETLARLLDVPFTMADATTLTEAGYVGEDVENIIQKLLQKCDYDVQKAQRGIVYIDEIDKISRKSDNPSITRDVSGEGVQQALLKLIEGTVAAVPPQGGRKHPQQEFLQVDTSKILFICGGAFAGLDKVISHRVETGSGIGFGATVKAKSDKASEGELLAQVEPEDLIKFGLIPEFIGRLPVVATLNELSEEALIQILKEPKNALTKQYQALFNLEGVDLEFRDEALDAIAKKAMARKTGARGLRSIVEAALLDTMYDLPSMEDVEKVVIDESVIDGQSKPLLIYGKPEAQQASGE
Sequence of MuA recognition peptides (Escherichia phage Mu) (P07636 whole entry, looked up): as the sequence (P07636 whole entry) above

ClpX (from UniProt P0A6H1)
Kd [1]: > 70 µM
Kd [2]: 1 µM
